# B1: P17-8E12 IgG (antibody, V domains shown)
# VH: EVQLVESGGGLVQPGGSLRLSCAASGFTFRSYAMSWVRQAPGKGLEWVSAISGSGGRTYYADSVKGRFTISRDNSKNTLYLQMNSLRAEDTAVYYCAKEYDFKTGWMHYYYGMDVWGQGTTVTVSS
# VL: QSVLTQPPSVSGAPGQRVTISCTGSSSGYDVHWYQQLPGRAPKLLIYGSNNRPSGVPDRFSGSNSGTSASLAITGLQAEDEADYYCQSYDSSLNAIFGGGTKLTVL
# notes: IgG
# B2: P17-11F4 IgG (antibody, V domains shown)
# VH: EVQLVESGGGLVQPGGSLRLSCAASGFTFKDYAMSWVRQAPGKGLEWVSALSGSGGATYYADSVKGRFTISRDNSKNTLYLQMNSLRAEDTAVYYCAKEMDFRYGWMHYYYGMDVWGQGTTVTVSS
# VL: QSVLTQPPSVSGAPGQRVTISCTGSSSGYDVHWYQQLPGRAPKLLIYGSNNRPSGVPDRFSGSNSGTSASLAITGLQAEDEADYYCQSYDSSLNAIFGGGTKLTVL
# notes: IgG
# Experiments:
# [1] = target: T1, Glypican 3 Protein, Human, Recombinant (His Tag) (Sino Biological, Cat #10088-H08H) (human, UniProt P51654 25-559); assay: Octet QKe BLI, ratio of KDs against P17 WT
# T1 construct: Bought recombinant protein; also called Hu-GPC3 (10088-H08H); human GPC3; not shown: His tag
# T1 sequence (P51654 25-559 limits assumed): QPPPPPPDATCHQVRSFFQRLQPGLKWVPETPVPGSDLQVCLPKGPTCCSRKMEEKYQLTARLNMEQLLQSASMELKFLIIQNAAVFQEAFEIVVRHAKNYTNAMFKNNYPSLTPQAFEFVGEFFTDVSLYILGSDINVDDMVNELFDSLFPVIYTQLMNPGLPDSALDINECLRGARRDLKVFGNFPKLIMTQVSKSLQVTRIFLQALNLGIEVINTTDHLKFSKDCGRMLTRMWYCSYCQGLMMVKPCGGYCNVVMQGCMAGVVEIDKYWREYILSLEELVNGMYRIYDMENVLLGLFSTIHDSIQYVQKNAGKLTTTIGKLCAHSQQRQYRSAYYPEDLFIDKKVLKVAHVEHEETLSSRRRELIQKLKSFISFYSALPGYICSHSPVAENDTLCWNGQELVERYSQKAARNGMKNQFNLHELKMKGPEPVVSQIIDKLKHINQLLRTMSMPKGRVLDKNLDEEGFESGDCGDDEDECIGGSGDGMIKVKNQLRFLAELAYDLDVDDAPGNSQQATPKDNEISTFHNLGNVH
# [2] = target: T1, Glypican 3 Protein, Human, Recombinant …; assay: Octet QKe BLI, IgG on AHC probe, GPC3 (Sino Biological) in solution, 1:1 fit
Binder,fold lower KD than P17 WT [1] [fold],Kd [2] [pM],koff [2] [s⁻¹],kon [2] [M⁻¹ s⁻¹]
B1,6000,< 1,1.79e-07,223000
B2,6000,< 1,1.83e-07,188000

# Reference: patent US20260132214A1 (JECHO LABORATORIES, published 2026)
